Assay results published in patent US20110306125A1, “Protein Expression Methods” (Ironwood Pharmaceuticals, Inc., priority 2008, published 2011).

Molecular target: T1, GC-C receptor (Homo sapiens, UniProt P25092)
T1 construct: production of intracellular cGMP using cultured human colon carcinoma T84 cells; endogenous in cells; host or cells: T84 human colon carcinoma cells
Test: production of intracellular cGMP in cultured human colon carcinoma T84 cells (cGMP ELISA)
Type: cell-based
Conditions: intracellular cGMP by ELISA kit, compared with synthetic human uroguanylin, FIG. 8
Protocol: The ability of polypeptides, variant polypeptides and other compounds to bind to and activate the intestinal GC-C receptor can be tested using the T84 human colon carcinoma cell line (American Type Culture Collection (Bethesda, Md.).
Briefly, cells are grown to confluency in 24-well culture plates with a 1:1 mixture of Ham's F12 medium and Dulbecco's modified Eagle's medium (DMEM), supplemented with 5% fetal calf serum and are used at between passages 54 and 60.
Monolayers of T84 cells in 24-well plates are washed twice with 1 ml/well DMEM, then incubated at 37° C. for 10 min with 0.45 ml DMEM containing 1 mM isobutylmethylxanthine (IBMX), a cyclic nucleotide phosphodiesterase inhibitor. Test polypeptides (50Tl) are then added and incubated for 30 minutes at 37° C. The media is aspirated and the reaction is terminated by the addition of ice cold 0.5 ml of 0.1N HCl. […] Cyclic GMP is measured by EIA according to procedures outlined in the Cayman Chemical Cyclic GMP EIA kit.
The activity of the mature peptide was evaluated by the production of intracellular cGMP using cultured human colon carcinoma T84 cells, as described by Currie et al. (Pro. Natl. Acad. Sci. USA., 89:947-951, 1992). cGMP levels were subsequently measured using a cGMP ELISA kit (Cayman Chemical, Ann Arbor, Mich.) according to the manufacturer's protocol. […]

T1 sequence (P25092 24-1073): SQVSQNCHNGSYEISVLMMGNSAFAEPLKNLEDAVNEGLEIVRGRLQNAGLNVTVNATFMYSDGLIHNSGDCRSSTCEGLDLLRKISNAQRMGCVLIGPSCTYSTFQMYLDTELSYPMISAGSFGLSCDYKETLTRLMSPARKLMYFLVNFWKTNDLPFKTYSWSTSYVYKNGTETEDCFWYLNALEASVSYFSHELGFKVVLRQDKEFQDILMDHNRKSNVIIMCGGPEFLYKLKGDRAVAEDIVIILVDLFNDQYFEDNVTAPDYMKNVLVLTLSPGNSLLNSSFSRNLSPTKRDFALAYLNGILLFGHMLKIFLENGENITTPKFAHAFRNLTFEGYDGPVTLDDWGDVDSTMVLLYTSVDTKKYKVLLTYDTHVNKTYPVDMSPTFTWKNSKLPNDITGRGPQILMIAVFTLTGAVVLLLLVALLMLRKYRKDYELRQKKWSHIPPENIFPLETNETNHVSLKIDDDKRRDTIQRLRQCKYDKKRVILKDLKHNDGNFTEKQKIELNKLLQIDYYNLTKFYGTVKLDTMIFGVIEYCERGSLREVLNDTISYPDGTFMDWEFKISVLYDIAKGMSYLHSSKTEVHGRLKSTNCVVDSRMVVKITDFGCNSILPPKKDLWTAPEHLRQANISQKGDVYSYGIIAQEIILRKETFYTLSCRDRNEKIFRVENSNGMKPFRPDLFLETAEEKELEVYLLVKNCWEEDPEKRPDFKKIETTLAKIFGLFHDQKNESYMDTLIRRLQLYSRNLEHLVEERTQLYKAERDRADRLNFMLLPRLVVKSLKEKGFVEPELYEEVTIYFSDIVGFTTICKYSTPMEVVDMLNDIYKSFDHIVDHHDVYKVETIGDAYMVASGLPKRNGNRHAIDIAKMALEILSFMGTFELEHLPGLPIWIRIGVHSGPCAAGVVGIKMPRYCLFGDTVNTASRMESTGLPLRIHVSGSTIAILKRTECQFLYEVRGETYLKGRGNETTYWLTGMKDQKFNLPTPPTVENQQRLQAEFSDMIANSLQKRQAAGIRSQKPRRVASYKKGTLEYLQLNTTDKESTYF

In the case of NDDCELCVNVACTGCL [mature UGN peptide], the cGMP levels produced is reported as “comparable to those levels produced using synthetic human UGN”.
